The values that follow come from US20090069215A1, “Acylated Single Chain Insulin” (Novo Nordisk A/S, priority 2006, published 2009).

Sequence of human insulin receptor (P06213 28-746 isoform P06213-2 limits assumed): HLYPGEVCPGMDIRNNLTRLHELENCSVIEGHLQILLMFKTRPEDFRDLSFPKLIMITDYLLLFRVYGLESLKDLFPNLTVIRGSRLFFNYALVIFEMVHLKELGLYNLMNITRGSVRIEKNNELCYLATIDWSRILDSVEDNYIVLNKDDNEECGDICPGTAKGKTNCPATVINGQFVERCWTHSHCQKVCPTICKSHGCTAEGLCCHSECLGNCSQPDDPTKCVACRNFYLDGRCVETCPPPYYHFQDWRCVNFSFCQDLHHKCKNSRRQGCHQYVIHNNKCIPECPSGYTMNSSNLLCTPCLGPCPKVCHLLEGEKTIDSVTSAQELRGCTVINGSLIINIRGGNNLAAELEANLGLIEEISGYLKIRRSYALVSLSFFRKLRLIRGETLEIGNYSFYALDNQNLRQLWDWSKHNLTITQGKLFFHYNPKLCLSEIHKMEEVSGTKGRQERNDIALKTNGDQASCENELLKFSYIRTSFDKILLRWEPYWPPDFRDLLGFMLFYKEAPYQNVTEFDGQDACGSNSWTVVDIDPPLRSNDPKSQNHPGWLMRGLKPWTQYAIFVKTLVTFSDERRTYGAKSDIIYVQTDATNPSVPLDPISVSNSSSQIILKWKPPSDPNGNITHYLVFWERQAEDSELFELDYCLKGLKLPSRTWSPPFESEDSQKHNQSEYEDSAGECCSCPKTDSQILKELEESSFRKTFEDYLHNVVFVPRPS
Sequence of human insulin receptor (P06213 763-1382 partner limits assumed): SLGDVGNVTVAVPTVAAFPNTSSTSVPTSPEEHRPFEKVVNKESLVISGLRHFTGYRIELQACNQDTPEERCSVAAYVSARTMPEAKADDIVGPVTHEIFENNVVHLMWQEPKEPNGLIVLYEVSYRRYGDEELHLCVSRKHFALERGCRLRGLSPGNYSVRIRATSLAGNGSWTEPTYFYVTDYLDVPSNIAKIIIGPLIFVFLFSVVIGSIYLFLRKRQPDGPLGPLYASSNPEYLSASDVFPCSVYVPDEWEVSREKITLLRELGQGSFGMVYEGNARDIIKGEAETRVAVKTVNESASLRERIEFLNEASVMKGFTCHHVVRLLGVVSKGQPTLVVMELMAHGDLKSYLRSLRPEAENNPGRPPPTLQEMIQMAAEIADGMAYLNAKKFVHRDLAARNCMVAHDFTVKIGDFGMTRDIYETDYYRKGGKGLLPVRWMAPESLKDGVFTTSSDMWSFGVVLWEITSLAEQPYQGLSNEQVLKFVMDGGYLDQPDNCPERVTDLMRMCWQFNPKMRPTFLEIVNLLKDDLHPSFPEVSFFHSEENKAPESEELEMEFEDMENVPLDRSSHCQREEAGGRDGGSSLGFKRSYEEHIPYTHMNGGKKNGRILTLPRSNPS

One test deals with purified recombinant human insulin receptor-exon 11 (human) (UniProt P06213). Nature of the test: assay (I): SPA competition, displacement of A14 Tyr[125I]-human insulin from recombinant human insulin receptor; reference human insulin.
Sequence of purified recombinant human insulin receptor-exon 11 (human) (P06213 other isoform, or with tags, fused parts or gaps limits assumed, form in doubt): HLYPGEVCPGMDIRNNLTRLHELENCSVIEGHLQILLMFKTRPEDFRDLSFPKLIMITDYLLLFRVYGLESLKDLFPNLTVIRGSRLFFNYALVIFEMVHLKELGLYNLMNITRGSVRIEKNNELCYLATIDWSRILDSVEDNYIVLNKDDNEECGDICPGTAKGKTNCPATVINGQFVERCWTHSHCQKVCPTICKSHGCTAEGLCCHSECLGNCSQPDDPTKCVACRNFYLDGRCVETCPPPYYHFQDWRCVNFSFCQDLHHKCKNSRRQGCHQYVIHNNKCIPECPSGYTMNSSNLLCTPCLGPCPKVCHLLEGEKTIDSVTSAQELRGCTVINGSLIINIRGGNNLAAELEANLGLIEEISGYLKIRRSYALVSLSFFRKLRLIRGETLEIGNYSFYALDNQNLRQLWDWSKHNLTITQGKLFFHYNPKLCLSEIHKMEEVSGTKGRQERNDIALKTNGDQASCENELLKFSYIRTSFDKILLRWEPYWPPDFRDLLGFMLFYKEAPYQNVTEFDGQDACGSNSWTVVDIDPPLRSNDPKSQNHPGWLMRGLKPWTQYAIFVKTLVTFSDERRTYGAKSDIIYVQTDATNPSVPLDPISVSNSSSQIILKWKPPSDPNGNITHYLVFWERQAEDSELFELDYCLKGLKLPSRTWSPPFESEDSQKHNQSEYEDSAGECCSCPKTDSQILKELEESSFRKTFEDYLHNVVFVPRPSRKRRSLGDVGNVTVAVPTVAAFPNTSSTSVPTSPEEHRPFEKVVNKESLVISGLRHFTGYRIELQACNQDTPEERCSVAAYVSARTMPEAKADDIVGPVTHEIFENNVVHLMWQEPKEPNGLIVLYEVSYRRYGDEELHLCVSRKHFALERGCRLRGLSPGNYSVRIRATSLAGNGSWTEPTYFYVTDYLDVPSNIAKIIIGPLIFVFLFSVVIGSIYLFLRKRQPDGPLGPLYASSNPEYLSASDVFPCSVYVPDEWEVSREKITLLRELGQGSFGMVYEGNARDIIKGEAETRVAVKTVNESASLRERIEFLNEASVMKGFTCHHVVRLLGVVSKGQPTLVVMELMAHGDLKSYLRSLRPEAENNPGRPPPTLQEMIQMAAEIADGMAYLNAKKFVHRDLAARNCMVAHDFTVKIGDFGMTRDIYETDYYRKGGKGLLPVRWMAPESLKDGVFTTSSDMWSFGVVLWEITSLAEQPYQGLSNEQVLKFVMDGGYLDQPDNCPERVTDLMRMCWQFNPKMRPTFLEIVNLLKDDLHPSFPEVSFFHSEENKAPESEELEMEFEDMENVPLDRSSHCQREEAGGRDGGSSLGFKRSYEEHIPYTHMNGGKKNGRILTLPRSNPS
Conditions: not given
As for “B(1-29)-B22K((eps)hexadecandioyl-gGlu)-B29H-TGLGSGR-A(1-21)-A18Q-A21G Human insulin (from UniProt P01308 25-53; P01308 90-110) (ligand)”, the insulin receptor binding relative to that of human insulin was found to be 46%.

On to “B(1-29)-B22K((eps)hexadecandioyl-gGlu)-B29Q-TGLGSGR-A(1-21)-A18Q-A21G Human insulin (from UniProt P01308 25-53; P01308 90-110) (ligand)”, for which the insulin receptor binding relative to that of human insulin came to 154%.

For “B(1-29)-B22K((eps)myristoyl)-B29A-VGLSSGQ-A(1-21)-A18Q Human Insulin (from UniProt P01308 25-53; P01308 90-110) (ligand)”, the insulin receptor binding relative to that of human insulin turned out to be 46%.

In the case of “B(1-29)-B22K(N(eps)heptadecandioyl)-B29H-TGLGSGR-A(1-21)-A18Q-A21G Human insulin (from UniProt P01308 25-53; P01308 90-110) (ligand)”, the insulin receptor binding relative to that of human insulin was determined as 119%.

As for “B(1-29)-B22K(N(eps)heptadecandioyl-g-L-Glu)-B29H-TGLGSGR-A(1-21)-A18Q-A21G Human insulin (from UniProt P01308 25-53; P01308 90-110) (ligand)”, the insulin receptor binding relative to that of human insulin came to 53%.

Take “B(1-29)-B22K(N(eps)hexadecandioyl-g-L-Glu-amide)-B29H-TGLGSGR-A(1-21)-A18Q-A21G Human insulin (from UniProt P01308 25-53; P01308 90-110) (ligand)”: the insulin receptor binding relative to that of human insulin was 105%.

For “B(1-29)-B22K(N(eps)hexadecandioyl-gGlu)-B29A-VGLSSGQ-A(1-21)-A18Q Human Insulin (from UniProt P01308 25-53; P01308 90-110) (ligand)”, the insulin receptor binding relative to that of human insulin was 64%.

“B(1-29)-B22K(N(eps)octadecandioyl)-B29A-VGLSSGQ-A(1-21)-A18Q Human Insulin (from UniProt P01308 25-53; P01308 90-110) (ligand)”: the insulin receptor binding relative to that of human insulin came out at 16%.

A further test addresses human insulin receptor (Homo sapiens, UniProt P06213). The test is described as follows: Insulin receptor binding, SPA antibody capture assay (assay (I)). The following applies: recombinant human insulin receptor - exon 11, A14 Tyr[125I]-human insulin tracer, human insulin = 100%. Here is the method:
Insulin Receptor Binding of the Acylated, Single-Chain Insulin
The affinity of the acylated, single-chain insulins for the human insulin receptor can be determined by a SPA assay (Scintillation Proximity Assay) microtiterplate antibody capture assay. SPA-PVT antibody-binding beads, anti-mouse reagent (Amersham Biosciences, Cat No. PRNQ0017) are mixed with 25 ml of binding buffer (100 mM HEPES pH 7.8; 100 mM sodium chloride, 10 mM MgSO4, 0.025% Tween-20). Reagent mix for a single Packard Optiplate (Packard No. 6005190) is composed of 2.4 μl of a 1:5000 diluted purified recombinant human insulin receptor—exon 11, an amount of a stock solution of A14 Tyr[125I]-human insulin corresponding to 5000 cpm per 100 μl of reagent mix, 12 μl of a 1:1000 dilution of F12 antibody, 3 ml of SPA-beads and binding buffer to a total of 12 ml. A total of 100 μl is then added and a dilution series is made from appropriate samples. To the dilution series is then added 100 μl of reagent mix and the samples are incubated for 16 hours while gently shaken. The phases are then separated by centrifugation for 1 min and the plates counted in a Topcounter. The binding data are fitted using the nonlinear regression algorithm in the GraphPad Prism 2.01 (GraphPad Software, San Diego, Calif.).
“B(1-29)-B22K((eps)hexadecandioyl-gGlu)-B29H-TGLGSGR-A(1-21)-A18Q-A21G Human insulin [Example 4]”: the “insulin receptor binding relative to that of human insulin” value is 46%.

Take “B(1-29)-B22K((eps)hexadecandioyl-gGlu)-B29Q-TGLGSGR-A(1-21)-A18Q-A21G Human insulin [Example 5]”: the “insulin receptor binding relative to that of human insulin” value was 154%.

Turning to “B(1-29)-B22K((eps)myristoyl)-B29A-VGLSSGQ-A(1-21)-A18Q Human Insulin [Example 1]”, the “insulin receptor binding relative to that of human insulin” value was 46%.

For the substance “B(1-29)-B22K(N(eps)heptadecandioyl)-B29H-TGLGSGR-A(1-21)-A18Q-A21G Human insulin [Example 7]”, the “insulin receptor binding relative to that of human insulin” value amounted to 119%.

Regarding “B(1-29)-B22K(N(eps)heptadecandioyl-g-L-Glu)-B29H-TGLGSGR-A(1-21)-A18Q-A21G Human insulin [Example 8]”, the “insulin receptor binding relative to that of human insulin” value is recorded as 53%.

With “B(1-29)-B22K(N(eps)hexadecandioyl-g-L-Glu-amide)-B29H-TGLGSGR-A(1-21)-A18Q-A21G Human insulin [Example 6]”, the “insulin receptor binding relative to that of human insulin” value was determined as 105%.

Take “B(1-29)-B22K(N(eps)hexadecandioyl-gGlu)-B29A-VGLSSGQ-A(1-21)-A18Q Human Insulin [Example 3]”: the “insulin receptor binding relative to that of human insulin” value was 64%.

As for “B(1-29)-B22K(N(eps)octadecandioyl)-B29A-VGLSSGQ-A(1-21)-A18Q Human Insulin [Example 2]”, the “insulin receptor binding relative to that of human insulin” value is on record as 16%.
